Experimental data: patent US20040067903A1 (published 2004)

What was measured:
Experiment in all cases: GST pull-down from GDP+AlF4- treated human platelet lysate, western blot
[1] = biological target: T1, Gαz (endogenous, human platelet lysate) (human, UniProt P19086 2-355)
T1 construct: mature; also called printed once as Gα2
Procedure: (§1) Bound antibody was detected using goat […] (BioRad, Hercules, Calif.) and Supersignal West Pico ECL reagent (Pierce, Rockford, Ill.).
(§2) In order to determine the target alpha subunits of RGS18, binding experiments were performed using GST-RGS18 as prepared in Example 4 and lysates of human platelets. A similar method has been used to determine the binding specificity of hRGS16 using lysates from Jurkat cells (164). […] For these experiments, platelets were lysed in a Triton X-100 containing buffer and resuspended to 1 mg/ml. The lysate was then treated with GDP, which holds the alpha subunit in the GDP-bound “in-activated” state, or GDP+AlF₄⁻ that mimics the transition state of the Gα subunit. Recombinant GST-RGS18 bound to Sepharose-4 beads was added to the treated lysates, incubated and washed several times. Bound protein was eluted in Laemmli buffer and subjected to SDS-PAGE followed by western blot analysis. A panel of G protein alpha subunit specific antibodies was used to determine which alpha subunits bind to RGS18. […] In contrast, in lysates that have been treated with GDP+AlF₄⁻, RGS18 binds a significant amount of alpha subunit detected by antibodies directed against G_{αi1/2}, G_{α0/i3} and G_{αq/11}. […] Neither GST nor Sepharose 4B alone binds to any of these alpha subunits in either GDP or GDP+AlF₄⁻ treated platelet lysates (data not shown). The binding selectivity of RGS18 is consistent with that found for other RGS proteins which selectively bind to members of the Gαi family and/or Gαq family (14).

[2] = biological target: T2, Gα12 (endogenous, human platelet lysate) (human, UniProt Q03113 1-381)
T2 construct: mature
T2 sequence (looked up): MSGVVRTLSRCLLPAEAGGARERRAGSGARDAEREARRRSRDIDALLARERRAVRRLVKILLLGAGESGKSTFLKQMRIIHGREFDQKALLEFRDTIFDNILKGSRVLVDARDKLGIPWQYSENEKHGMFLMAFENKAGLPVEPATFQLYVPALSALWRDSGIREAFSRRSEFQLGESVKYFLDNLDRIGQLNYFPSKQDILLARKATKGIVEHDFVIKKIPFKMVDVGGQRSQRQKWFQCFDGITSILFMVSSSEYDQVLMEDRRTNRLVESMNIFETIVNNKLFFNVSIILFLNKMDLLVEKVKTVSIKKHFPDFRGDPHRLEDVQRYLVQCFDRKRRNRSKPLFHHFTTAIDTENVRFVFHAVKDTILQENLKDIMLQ
Procedure: as §1, §2

[3] = biological target: T3, Gαs (endogenous, human platelet lysate) (human, UniProt P63092 2-394)
T3 construct: mature
T3 sequence (P63092 2-394): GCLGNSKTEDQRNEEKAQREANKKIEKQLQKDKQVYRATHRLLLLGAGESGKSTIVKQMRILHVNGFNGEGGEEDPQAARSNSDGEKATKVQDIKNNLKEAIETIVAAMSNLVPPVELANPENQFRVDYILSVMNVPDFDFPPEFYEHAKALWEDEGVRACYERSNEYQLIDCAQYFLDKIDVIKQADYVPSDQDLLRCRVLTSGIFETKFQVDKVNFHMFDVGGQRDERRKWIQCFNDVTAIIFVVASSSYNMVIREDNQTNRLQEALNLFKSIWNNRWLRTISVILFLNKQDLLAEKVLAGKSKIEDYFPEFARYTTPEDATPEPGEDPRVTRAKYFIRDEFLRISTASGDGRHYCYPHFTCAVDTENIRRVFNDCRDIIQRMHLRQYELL
Procedure: as §1, §2

[4] = biological target: T4, Gαq (endogenous, human platelet lysate) (human, UniProt P50148 1-359)
T4 construct: mature; also called Gαq/11; alpha subunit detected by antibodies directed against Gαq/11
T4 sequence (looked up): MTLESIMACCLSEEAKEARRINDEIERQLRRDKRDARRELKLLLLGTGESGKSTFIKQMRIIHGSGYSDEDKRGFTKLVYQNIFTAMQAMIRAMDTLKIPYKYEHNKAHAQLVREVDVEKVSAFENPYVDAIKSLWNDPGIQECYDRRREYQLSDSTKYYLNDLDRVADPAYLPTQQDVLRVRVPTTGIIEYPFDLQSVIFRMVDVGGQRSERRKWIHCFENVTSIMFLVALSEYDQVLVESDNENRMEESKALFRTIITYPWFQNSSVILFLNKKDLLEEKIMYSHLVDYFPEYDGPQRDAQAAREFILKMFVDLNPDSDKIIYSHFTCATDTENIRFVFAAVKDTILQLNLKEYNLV
Procedure: as §1, §2

T1 sequence (P19086 2-355): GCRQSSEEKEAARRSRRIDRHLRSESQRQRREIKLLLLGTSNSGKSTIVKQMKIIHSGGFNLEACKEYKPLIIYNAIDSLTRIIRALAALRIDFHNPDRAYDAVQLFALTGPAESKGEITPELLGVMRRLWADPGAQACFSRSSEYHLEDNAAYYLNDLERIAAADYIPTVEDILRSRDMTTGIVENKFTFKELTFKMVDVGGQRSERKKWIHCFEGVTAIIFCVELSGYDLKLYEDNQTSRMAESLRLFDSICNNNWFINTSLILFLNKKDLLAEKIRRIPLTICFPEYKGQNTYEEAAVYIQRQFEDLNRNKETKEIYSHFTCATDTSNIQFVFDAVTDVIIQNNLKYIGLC

binding result [1]: no binding
binding result [2]: no binding
binding result [3]: no binding
binding result [4]: binds
B1: GST-RGS18 fusion protein coupled to glutathione-Sepharose 4B (other)
chain: METTLLFFSQINMCESKEKTFFKLIHGSGKEETSKEAKIRAKEKRNRLSLLVQKPEFHEDTRSSRSGHLAKETRVSPEEAVKWGESFDKLLSHRDGLEAFTRFLKTEFSEENIEFWIACEDFKKSKGPQQIHLKAKAIYEKFIQTDAPKEVNLDFHTKEVITNSITQPTLHSFDAAQSRVYQLMEQDSYTRFLKSDIYLDLMEGRPQRPTNLRRRSRSFTCNEFQDVQSDVAIWL
notes: The sense primer carries a few nucleotides upstream of the ATG, so a short extra linker between GST and Met1 is likely; also called recombinant GST-RGS18; GST-tagged fusion protein of RGS18; not shown: glutathione S-transferase (GST) tag encoded by plasmid pGEX-5X-1, N-terminal to RGS18 (in-frame Bam HI fusion); the fili
